Results from patent US20110053865A1 (published 2011).
Like-named read-outs stand apart in the source and are kept apart here. Values belong to the binder of their own block, whether it stands above or below them.

What was measured:
124D4 [1] = assay: Biacore
124D11 [2] = assay: Biacore
124G4 [3] = assay: Biacore
124H2 [4] = assay: Biacore
124H5 [5] = assay: Biacore
124B5 [6] = assay: Biacore
12C10 = assay: Biacore; R&D hIL23
124D2 = assay: Biacore; R&D hIL23
124D4 [7] = assay: Biacore; R&D hIL23
12E11 = assay: Biacore; R&D hIL23
124G2 = assay: Biacore; R&D hIL23
124D11 [8] = assay: Biacore; R&D hIL23
124F10 = assay: Biacore; R&D hIL23
124G4 [9] = assay: Biacore; R&D hIL23
124C5 = assay: Biacore; R&D hIL23
124E3 = assay: Biacore; R&D hIL23
124F7 = assay: Biacore; R&D hIL23
12D2 = assay: Biacore; R&D hIL23
4E11 = assay: Biacore; R&D hIL23
124C3 = assay: Biacore; R&D hIL23
12G7 = assay: Biacore; R&D hIL23
124H2 [10] = assay: Biacore; R&D hIL23
4E3 = assay: Biacore; R&D hIL23
12F11 = assay: Biacore; R&D hIL23
12H2 = assay: Biacore; R&D hIL23
12A4 = assay: Biacore; R&D hIL23
12A11 = assay: Biacore; R&D hIL23
4D2 = assay: Biacore; R&D hIL23
12D11 = assay: Biacore; R&D hIL23
124B6 = assay: Biacore; R&D hIL23
124H5 [11] = assay: Biacore; R&D hIL23
4A11 = assay: Biacore; R&D hIL23
124H1 = assay: Biacore; R&D hIL23
124B5 [12] = assay: Biacore; R&D hIL23
124E5 = assay: Biacore; R&D hIL23
4E7 = assay: Biacore; R&D hIL23
124F9 = assay: Biacore; R&D hIL23
3D4 = assay: Biacore
3A10 = assay: Biacore
3A11 = assay: Biacore
4F3 = assay: Biacore
80C10 [13] = assay: Biacore
3H5 = assay: Biacore
3G9 = assay: Biacore
1G8 = assay: Biacore
3A7 = assay: Biacore
121C1 = 84D3 = assay: Biacore
3C7 = assay: Biacore
3E1 = assay: Biacore
80C10 [14] = assay: Biacore; remark: listed apart in the source
121C1 = assay: Biacore

koff (124D4 [1]): 0.0029 s⁻¹ | koff (124D11 [2]): 0.00744 s⁻¹ | koff (124G4 [3]): 0.00329 s⁻¹ | koff (124H2 [4]): 0.00291 s⁻¹ | koff (124H5 [5]): 0.00304 s⁻¹ | koff (124B5 [6]): 0.00105 s⁻¹
B1: R&D mIL23 (ligand)
chain 1: VPRSSSPDWAQCQQLSRNLCMLAWNAHAPAGHMNLLREEEDEETKNNVPRIQCEDGCDPQGLKDNSQFCLQRIRQGLAFYKHLLDSDIFKGEPALLPDSPMEQLHTSLLGLSQLLQPEDHPRETQQMPSLSSSQQWQRPLLRSKILRSLQAFLAIAARVFAHGAATLTEPLVPTA
chain 2: MWELEKDVYVVEVDWTPDAPGETVNLTCDTPEEDDITWTSDQRHGVIGSGKTLTITVKEFLDAGQYTCHKGGETLSHSHLLLHKKENGIWSTEILKNFKNKTFLKCEAPNYSGRFTCSWLVQRNMDLKFNIKSSSSSPDSRAVTCGMASLSAEKVTLDQRDYEKYSVSCQEDVTCPTAEETLPIELALEARQQNKYENYSTSFFIRDIIKPDPPKNLQMKPLKNSQVEVSWEYPDSWSTPHSYFSLKFFVRIQRKKEKMKETEEGCNQKGAFLVEKTSTEVQCKGGNVCVQAQDRYYNSSCSKWACVPCRVRS

koff (12C10): 0.000289 s⁻¹ | koff (124D2): 9.08e-05 s⁻¹ | koff (124D4 [7]): 0.000348 s⁻¹ | koff (12E11): 0.000237 s⁻¹ | koff (124G2): 6.55e-05 s⁻¹ | koff (124D11 [8]): 0.000259 s⁻¹ | koff (124F10): 0.000169 s⁻¹ | koff (124G4 [9]): 0.000146 s⁻¹ | koff (124C5): 0.000357 s⁻¹ | koff (124E3): 0.000261 s⁻¹ | koff (124F7): 0.000382 s⁻¹ | koff (12D2): 0.000101 s⁻¹ | koff (4E11): 0.000126 s⁻¹ | koff (124C3): 0.000123 s⁻¹ | koff (12G7): 0.000242 s⁻¹ | koff (124H2 [10]): 0.000116 s⁻¹ | koff (4E3): 0.000164 s⁻¹ | koff (12F11): 0.000235 s⁻¹ | koff (12H2): 0.000126 s⁻¹ | koff (12A4): 0.000295 s⁻¹ | koff (12A11): 0.000134 s⁻¹ | koff (4D2): 0.000111 s⁻¹ | koff (12D11): 0.000121 s⁻¹ | koff (124B6): 0.000249 s⁻¹ | koff (124H5 [11]): 0.000246 s⁻¹ | koff (4A11): 0.00032 s⁻¹ | koff (124H1): 0.000158 s⁻¹ | koff (124B5 [12]): 0.00022 s⁻¹ | koff (124E5): 0.000187 s⁻¹ | koff (4E7): 0.000101 s⁻¹ | koff (124F9): 0.00031 s⁻¹
B2: R&D hIL23 (ligand)
chain 1: RAVPGGSSPAWTQCQQLSQKLCTLAWSAHPLVGHMDLREEGDEETTNDVPHIQCGDGCDPQGLRDNSQFCLQRIHQGLIFYEKLLGSDIFTGEPSLLPDSPVGQLHASLLGLSQLLQPEGHHWETQQIPSLSPSQPWQRLLLRFKILRSLQAFVAVAARVFAHGAATLSP
chain 2: IWELKKDVYVVELDWYPDAPGEMVVLTCDTPEEDGITWTLDQSSEVLGSGKTLTIQVKEFGDAGQYTCHKGGEVLSHSLLLLHKKEDGIWSTDILKDQKEPKNKTFLRCEAKNYSGRFTCWWLTTISTDLTFSVKSSRGSSDPQGVTCGAATLSAERVRGDNKEYEYSVECQEDSACPAAEESLPIEVMVDAVHKLKYENYTSSFFIRDIIKPDPPKNLQLKPLKNSRQVEVSWEYPDTWSTPHSYFSLTFCVQVQGKSKREKKDRVFTDKTSATVICRKNASISVRAQDRYYSSSWSEWASVPCS

koff (3D4): 0.00714 s⁻¹ | koff (3A10): 0.00353 s⁻¹ | koff (3A11): 0.00636 s⁻¹ | koff (4F3): 0.00255 s⁻¹ | koff (80C10 [13]): 0.000578 s⁻¹ | koff (3H5): 0.00375 s⁻¹ | koff (3G9): 0.00768 s⁻¹ | koff (1G8): 0.000779 s⁻¹ | koff (3A7): 0.00588 s⁻¹ | koff (121C1 = 84D3): 0.0371 s⁻¹ | koff (3C7): 0.0119 s⁻¹ | koff (3E1): 0.00956 s⁻¹ | koff (80C10 [14]): 0.000578 s⁻¹ | koff (121C1): 0.0371 s⁻¹
B3: hIL12 (ligand)
chain 1: RNLPVATPDPGMFPCLHHSQNLLRAVSNMLQKARQTLEFYPCTSEEIDHEDITKDKTSTVEACLPLELTKNESCLNSRETSFITNGSCLASRKTSFMMALCLSSIYEDLKMYQVEFKTMNAKLLMDPKRQIFLDQNMLAVIDELMQALNFNSETVPQKSSLEEPDFYKTKIKLCILLHAFRIRAVTIDRVMSYLNAS
chain 2: B2 chain 2
